Each block holds one binder with its values, some of them ahead of it.
Experiments:
human 4-1BB on cells [1] = biological target: T1, human 4-1BB on cells (human, UniProt Q07011 24-255); test: cell-based or functional assay
[2] = biological target: T2, human 4-1BB expressed with a C-terminal murine Fc tag (human, UniProt Q07011 24-186); test: SPR Biacore 8k, antibody captured by anti-human Fc, h4-1BB.mFc as analyte, 25 C
T2 construct: also called h4-1BB.mFc; REGN3585; not shown: C-terminal murine Fc tag
Method: (§1) Equilibrium dissociation constants (KD values) for human 4-1BB expressed with a C-terminal myc-myc-hexahistidine tag (h4-1BB.mmH, REGN3584) or human 4-1BB expressed with a C-terminal murine Fc tag (h4-1BB.mFc, REGN3585) binding to purified anti-CD38×4-1BB 1+2 antibodies were determined using a real-time surface plasmon resonance biosensor using a Biacore 8k instrument. The CM5 Biacore sensor surface was derivatized by amine coupling with a monoclonal mouse anti-human Fc antibody (REGN2567). All Biacore binding studies were performed in a buffer composed of 0.01M HEPES pH 7.4, 0.15M NaCl, 3 mM EDTA, 0.05% v/v Surfactant P20 (HBS-EP running buffer). […] Antibody-reagent association was monitored for 5 minutes while dissociation in HBS-EP running buffer was monitored for 10 minutes. At the end of each cycle, the anti-CD38×4-1BB 1+2 antibody capture surface was regenerated using a 10 second injection of 20 mM phosphoric acid. All binding kinetics experiments were performed at 25° C.
(§2) Kinetic association (kₐ) and dissociation (kd) rate constants were determined by fitting the real-time sensorgrams to a 1:1 binding model using Cytiva Insight curve fitting software. Binding dissociation equilibrium constants (KD) and dissociative half-lives (t/2) were calculated from the kinetic rate constants as: […]

human 4-1BB on cells [3] = biological target: T1, human 4-1BB on cells; test: cell-based or functional assay; remark: listed apart in the source
human 4-1BB on cells [4] = biological target: T1, human 4-1BB on cells; test: cell-based or functional assay; remark: listed apart in the source
[5] = biological target: T3, human 4-1BB expressed with a C-terminal myc-myc-hexahistidine tag (human, UniProt Q07011 24-186); test: SPR Biacore 8k, antibody captured by anti-human Fc, h4-1BB.mmH as analyte, 25 C
T3 construct: also called h4-1BB.mmH; REGN3584; not shown: C-terminal myc-myc-hexahistidine tag
Method: as §1, §2

[6] = biological target: T2, human 4-1BB expressed with a C-terminal …; test: SPR Biacore 4000, h4-1BB.mFc captured by anti-mouse Fc, antibody as analyte, 25 C
Method: Equilibrium dissociation constants (KD values) for human 4-1BB expressed with a C-terminal murine Fc tag (h4-1BB.mFc, REGN3585) binding to purified anti-CD38×4-1BB 1+2 antibodies were determined using a real-time surface plasmon resonance biosensor using a Biacore 4000 instrument. […] All Biacore binding studies were performed in a buffer composed of 0.01M HEPES pH 7.4, 0.15M NaCl, 3 mM EDTA, 0.05% v/v Surfactant P20 (HBS-EP running buffer). Different concentrations of CD38×4-1BB 1+2 constructs prepared in HBS-EP running buffer (ranging from 100 to 6.25 nM in 4-fold serial dilutions) were injected over the h4-1BB.mFc (REGN3585) captured surface at a flow rate of 30 μL/minute. Antibody-reagent association was monitored for 5 minutes while dissociation in HBS-EP running buffer was monitored for 10 minutes. At the end of each cycle, the h4-1BB.mFc capture surface was regenerated using a 40 sec injection of 10 mM glycine, pH 1.5. All binding kinetics experiments were performed at 25° C.
as §2

T2 sequence (Q07011 24-186 limits assumed): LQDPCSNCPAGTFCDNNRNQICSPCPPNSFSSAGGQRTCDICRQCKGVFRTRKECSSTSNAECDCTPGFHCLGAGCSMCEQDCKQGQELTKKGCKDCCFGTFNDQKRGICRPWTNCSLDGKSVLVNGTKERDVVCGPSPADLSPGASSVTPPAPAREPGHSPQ
T3 sequence (Q07011 24-186 limits assumed): as above
T1 sequence (Q07011 24-255): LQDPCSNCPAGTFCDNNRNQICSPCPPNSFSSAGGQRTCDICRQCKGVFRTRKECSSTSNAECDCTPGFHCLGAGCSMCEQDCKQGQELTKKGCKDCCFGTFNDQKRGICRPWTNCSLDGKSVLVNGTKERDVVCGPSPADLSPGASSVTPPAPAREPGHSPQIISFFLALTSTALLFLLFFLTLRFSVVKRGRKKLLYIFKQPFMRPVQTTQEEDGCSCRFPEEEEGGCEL

EC50 of luciferase activity, HEK293/NFkB-Luc/h4-1BB reporter + OPM2 (human 4-1BB on cells [1]): 21.9 pM
MAX luciferase activity, HEK293/NFkB-Luc/h4-1BB reporter + HEK293/CD20 (human 4-1BB on cells [1]): 1e+06 RLU
MAX luciferase activity, HEK293/NFkB-Luc/h4-1BB reporter + HEK293/CD20/CD38 (human 4-1BB on cells [1]): 2.4e+06 RLU
MAX luciferase activity, HEK293/NFkB-Luc/h4-1BB reporter + MOLP-8 (human 4-1BB on cells [1]): 2.2e+06 RLU
MAX luciferase activity, HEK293/NFkB-Luc/h4-1BB reporter + OPM2 (human 4-1BB on cells [1]): 2.1e+06 RLU
100 nM h4-1BB.mFc Bind (RU) [2]: 283 RU
Kd [2]: 860 pM
koff [2]: 0.000177 s⁻¹
kon [2]: 206000 M⁻¹ s⁻¹
t½ [2]: 65.3 min
EC50 of IFNγ release, T cells + HEK293/CD20/CD38 + REGN2281 (human 4-1BB on cells [3]): 52.6 pM
EC50 of IFNγ release, T cells + MOLP-8 + REGN5458 (human 4-1BB on cells [3]): 72.5 pM
EC50 of IFNγ release, T cells + NALM-6 (human 4-1BB on cells [3]): 41.9 pM
MAX IFNγ release, T cells + HEK293/CD20 + REGN2281 (human 4-1BB on cells [3]): 1570 pg/mL
MAX IFNγ release, T cells + HEK293/CD20/CD38 + REGN2281 (human 4-1BB on cells [3]): 5270 pg/mL
MAX IFNγ release, T cells + MOLP-8 + IsoC (human 4-1BB on cells [3]): 161 pg/mL
MAX IFNγ release, T cells + MOLP-8 + REGN5458 (human 4-1BB on cells [3]): 3410 pg/mL
MAX IFNγ release, T cells + NALM-6 (human 4-1BB on cells [3]): 658 pg/mL
EC50 of IL-2 release, T cells + HEK293/CD20/CD38 + REGN2281 (human 4-1BB on cells [4]): 60.7 pM
EC50 of IL-2 release, T cells + MOLP-8 + REGN5458 (human 4-1BB on cells [4]): 133 pM
EC50 of IL-2 release, T cells + NALM-6 (human 4-1BB on cells [4]): 71.7 pM
MAX IL-2 release, T cells + HEK293/CD20 + REGN2281 (human 4-1BB on cells [4]): 52 pg/mL
MAX IL-2 release, T cells + HEK293/CD20/CD38 + REGN2281 (human 4-1BB on cells [4]): 912 pg/mL
MAX IL-2 release, T cells + MOLP-8 + IsoC (human 4-1BB on cells [4]): 96 pg/mL
MAX IL-2 release, T cells + MOLP-8 + REGN5458 (human 4-1BB on cells [4]): 79 pg/mL
MAX IL-2 release, T cells + NALM-6 (human 4-1BB on cells [4]): 205 pg/mL
100 nM h4-1BB.mmH Bind (RU) [5]: 107 RU
Kd [5]: 13800 pM
koff [5]: 0.00494 s⁻¹
kon [5]: 358000 M⁻¹ s⁻¹
t½ [5]: 2.3 min
100 nM Ab Bind (RU) [6]: 234 RU
Kd [6]: 716 pM
koff [6]: 0.000308 s⁻¹
kon [6]: 430000 M⁻¹ s⁻¹
t½ [6]: 37.6 min
B1: REGN9682 (bispecific antibody, human IgG4 S228P, kappa)
heavy 1: EVQLVESGGGLVQPGRSLRLSCGASGFTFDDYVMHWVRQIPGKGLEWVAGISWNSGSIGYADSVKGRFTISRDNAKNSLYLQMNSLRAEDTALYFCAKDHIDPYSSSLYYYYGMDVWGQGTTVTVSSASTKGPSVFPLAPCSRSTSESTAALGCLVKDYFPEPVTVSWNSGALTSGVHTFPAVLQSSGLYSLSSVVTVPSSSLGTKTYTCNVDHKPSNTKVDKRVGGGGSGGGGSGGGGSEVQLVESGGGLVQPGRSLRLSCGASGFTFDDYVMHWVRQIPGKGLEWVAGISWNSGSIGYADSVKGRFTISRDNAKNSLYLQMNSLRAEDTALYFCAKDHIDPYSSSLYYYYGMDVWGQGTTVTVSSASTKGPSVFPLAPCSRSTSESTAALGCLVKDYFPEPVTVSWNSGALTSGVHTFPAVLQSSGLYSLSSVVTVPSSSLGTKTYTCNVDHKPSNTKVDKRVESKYGPPCPPCPAPPVAGPSVFLFPPKPKDTLMISRTPEVTCVVVDVSQEDPEVQFNWYVDGVEVHNAKTKPREEQFNSTYRVVSVLTVLHQDWLNGKEYKCKVSNKGLPSSIEKTISKAKGQPREPQVYTLPPSQEEMTKNQVSLTCLVKGFYPSDIAVEWESNGQPENNYKTTPPVLDSDGSFFLYSRLTVDKSRWQEGNVFSCSVMHEALHNRFTQKSLSLSPGK
heavy 2: EVQLVESGGGLVQPGRSLRLSCAASGFTFDDYAMHWVRQAPGKGLEWVSGISWKSDNIGYADSVKGRFTISRDNAKNSLYLQMNSLRAEDTALYYCAKALGGWKFDYYYGMDVWGQGTTVTVSSASTKGPSVFPLAPCSRSTSESTAALGCLVKDYFPEPVTVSWNSGALTSGVHTFPAVLQSSGLYSLSSVVTVPSSSLGTKTYTCNVDHKPSNTKVDKRVESKYGPPCPPCPAPPVAGPSVFLFPPKPKDTLMISRTPEVTCVVVDVSQEDPEVQFNWYVDGVEVHNAKTKPREEQFNSTYRVVSVLTVLHQDWLNGKEYKCKVSNKGLPSSIEKTISKAKGQPREPQVYTLPPSQEEMTKNQVSLTCLVKGFYPSDIAVEWESNGQPENNYKTTPPVLDSDGSFFLYSRLTVDKSRWQEGNVFSCSVMHEALHNHYTQKSLSLSLGK
light: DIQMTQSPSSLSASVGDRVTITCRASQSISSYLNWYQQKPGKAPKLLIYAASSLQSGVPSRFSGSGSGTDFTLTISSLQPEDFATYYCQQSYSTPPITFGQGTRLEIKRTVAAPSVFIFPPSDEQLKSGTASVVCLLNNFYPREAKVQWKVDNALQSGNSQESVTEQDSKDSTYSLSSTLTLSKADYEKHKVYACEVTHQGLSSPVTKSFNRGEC
notes: 1+2 format, hIgG4P-PVA; The linker between the two 4-1BB Fabs is (G4S)3; also called CD38x4-1BB (1 + 2), (G4S)3; 26812P2 x 35333P2 (IN) + 35333P2 (OUT)

EC50 of luciferase activity, HEK293/NFkB-Luc/h4-1BB reporter + OPM2 (human 4-1BB on cells [1]): 18 pM
MAX luciferase activity, HEK293/NFkB-Luc/h4-1BB reporter + HEK293/CD20 (human 4-1BB on cells [1]): 1.1e+06 RLU
MAX luciferase activity, HEK293/NFkB-Luc/h4-1BB reporter + HEK293/CD20/CD38 (human 4-1BB on cells [1]): 2.4e+06 RLU
MAX luciferase activity, HEK293/NFkB-Luc/h4-1BB reporter + MOLP-8 (human 4-1BB on cells [1]): 2.2e+06 RLU
MAX luciferase activity, HEK293/NFkB-Luc/h4-1BB reporter + OPM2 (human 4-1BB on cells [1]): 2.1e+06 RLU
100 nM h4-1BB.mFc Bind (RU) [2]: 267 RU
Kd [2]: 1200 pM
koff [2]: 0.000205 s⁻¹
kon [2]: 171000 M⁻¹ s⁻¹
t½ [2]: 56.3 min
EC50 of IFNγ release, T cells + HEK293/CD20/CD38 + REGN2281 (human 4-1BB on cells [3]): 87.4 pM
EC50 of IFNγ release, T cells + MOLP-8 + REGN5458 (human 4-1BB on cells [3]): 102 pM
MAX IFNγ release, T cells + HEK293/CD20 + REGN2281 (human 4-1BB on cells [3]): 1450 pg/mL
MAX IFNγ release, T cells + HEK293/CD20/CD38 + REGN2281 (human 4-1BB on cells [3]): 6820 pg/mL
MAX IFNγ release, T cells + MOLP-8 + IsoC (human 4-1BB on cells [3]): 85 pg/mL
MAX IFNγ release, T cells + MOLP-8 + REGN5458 (human 4-1BB on cells [3]): 3890 pg/mL
MAX IFNγ release, T cells + NALM-6 (human 4-1BB on cells [3]): 651 pg/mL
EC50 of IL-2 release, T cells + HEK293/CD20/CD38 + REGN2281 (human 4-1BB on cells [4]): 45.3 pM
EC50 of IL-2 release, T cells + MOLP-8 + IsoC (human 4-1BB on cells [4]): 36.1 pM
EC50 of IL-2 release, T cells + MOLP-8 + REGN5458 (human 4-1BB on cells [4]): 83.3 pM
EC50 of IL-2 release, T cells + NALM-6 (human 4-1BB on cells [4]): 72.3 pM
MAX IL-2 release, T cells + HEK293/CD20 + REGN2281 (human 4-1BB on cells [4]): 57 pg/mL
MAX IL-2 release, T cells + HEK293/CD20/CD38 + REGN2281 (human 4-1BB on cells [4]): 709 pg/mL
MAX IL-2 release, T cells + MOLP-8 + IsoC (human 4-1BB on cells [4]): 90 pg/mL
MAX IL-2 release, T cells + MOLP-8 + REGN5458 (human 4-1BB on cells [4]): 62 pg/mL
MAX IL-2 release, T cells + NALM-6 (human 4-1BB on cells [4]): 169 pg/mL
100 nM h4-1BB.mmH Bind (RU) [5]: 101 RU
Kd [5]: 14800 pM
koff [5]: 0.00474 s⁻¹
kon [5]: 319000 M⁻¹ s⁻¹
t½ [5]: 2.4 min
100 nM Ab Bind (RU) [6]: 232 RU
Kd [6]: 717 pM
koff [6]: 0.000337 s⁻¹
kon [6]: 470000 M⁻¹ s⁻¹
t½ [6]: 34.3 min
B2: REGN9686 (bispecific antibody, human IgG4 S228P, kappa)
heavy 1: EVQLVESGGGLVQPGRSLRLSCGASGFTFDDYVMHWVRQIPGKGLEWVAGISWNSGSIGYADSVKGRFTISRDNAKNSLYLQMNSLRAEDTALYFCAKDHIDPYSSSLYYYYGMDVWGQGTTVTVSSASTKGPSVFPLAPCSRSTSESTAALGCLVKDYFPEPVTVSWNSGALTSGVHTFPAVLQSSGLYSLSSVVTVPSSSLGTKTYTCNVDHKPSNTKVDKRVESKYGPPGGGGSGGGGSEVQLVESGGGLVQPGRSLRLSCGASGFTFDDYVMHWVRQIPGKGLEWVAGISWNSGSIGYADSVKGRFTISRDNAKNSLYLQMNSLRAEDTALYFCAKDHIDPYSSSLYYYYGMDVWGQGTTVTVSSASTKGPSVFPLAPCSRSTSESTAALGCLVKDYFPEPVTVSWNSGALTSGVHTFPAVLQSSGLYSLSSVVTVPSSSLGTKTYTCNVDHKPSNTKVDKRVESKYGPPCPPCPAPPVAGPSVFLFPPKPKDTLMISRTPEVTCVVVDVSQEDPEVQFNWYVDGVEVHNAKTKPREEQFNSTYRVVSVLTVLHQDWLNGKEYKCKVSNKGLPSSIEKTISKAKGQPREPQVYTLPPSQEEMTKNQVSLTCLVKGFYPSDIAVEWESNGQPENNYKTTPPVLDSDGSFFLYSRLTVDKSRWQEGNVFSCSVMHEALHNRFTQKSLSLSPGK
heavy 2: B1 heavy 2
light: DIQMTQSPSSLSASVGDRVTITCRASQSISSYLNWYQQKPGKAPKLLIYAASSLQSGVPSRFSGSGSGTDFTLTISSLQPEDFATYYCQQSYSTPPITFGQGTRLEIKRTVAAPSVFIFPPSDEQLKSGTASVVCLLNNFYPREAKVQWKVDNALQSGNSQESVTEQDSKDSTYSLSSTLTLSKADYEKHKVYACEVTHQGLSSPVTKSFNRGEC
notes: 1+2 format, hIgG4P-PVA; The linker between the two 4-1BB Fabs is (G4S)2; also called CD38x4-1BB (1 + 2), (G4S)2; 26812P2 x 35333P2 (IN) + 35333P2 (OUT)

Source: patent publication US20230416396A1 (Regeneron, published 2023)
